Test results from patent US10081667B2, “Composition and method for therapeutic agent delivery during pregnancy” (University of Mississippi Medical Center, priority 2013, dated 2018).

Legend:
[1] = tested on: endothelial cells (HUVECs); experiment: Cellular internalization by fluorescence microscopy, HUVECs; type: cell-based, human; conditions: 1 h exposure, imaged 24 h
Experimental: (§1) FIG. 18 includes images showing the cellular internalization of SynB1-ELP delivered NOX peptide. Rhodamine-labeled SynB1-ELP-NOX was exposed to cells for 1 h, cells were washed, fresh media was returned, and images were collected 24 h after initial exposure.
(§2) It is confirmed that the SynB1-ELP-NOX polypeptide was internalized by cells. Both endothelial cells (HUVECs) and chorionic cells (BeWo choriocarcinoma cells) were exposed to fluorescently labeled SynB1-ELP-NOX for 1 h. The cells were then washed and given fresh media for 24 h.

[2] = tested on: placental chorionic villous explants; experiment: ROS production in placental chorionic villous explants, dihydroethidium (DHE) assay; type: cell-based, rat; conditions: 20 or 50 μM, 1% O2, 48 h
Experimental: FIG. 19 includes a graph showing inhibition of reactive oxygen species production of placental villous explants. Villous explants were dissected from rat placentas at day 19 of gestation. Explants were grown ex vivo on a bed of Matrigel in cell culture medium. 24 h after equilibration of explants, media was replaced with media plus SynB1-ELP or SynB1-ELP-NOX, and explants were incubated at 37° C. in a 6% or 1% O2 environment for 48 h. ROS was detected by incubation with 5 μM dihydroethdium for 1 hour, and fluorescence was measured using a florescence plate reader. The assay was performed in triplicate, and data represent the mean±s.e. of three independent experiments each performed with 4 explants per treatment group. *p<0.01, one way ANOVA with post-hoc Bonferonni multiple comparison.
Chorionic villous explants were cut on GD19 and cultured ex vivo on Matrigel coated wells with complete cell culture medium. After equilibration, culture medium was replaced with medium containing SynB1-ELP-NOX or the SynB1-ELP control polypeptides at 20 or 50 μM, and explants were incubated at 6% O2 (representing a healthy placenta) or 1% O2 (representing a preeclamptic placenta). After 48 h exposure to hypoxia, detection of ROS was performed using the dihydroethidium (DHE) assay.

[3] = tested on: BeWo choriocarcinoma cells; experiment: Cellular internalization by fluorescence microscopy, BeWo cells; type: cell-based; conditions: 1 h exposure, imaged 24 h
Experimental: as §1, §2

B1: SynB1-ELP-NOX: SynB1 peptide fused to the N-terminus of ELP (SEQ ID NO: 4), NOX peptide at the C-terminus; SEQ ID NO: 16 (protein)
chain: MRGGRLSYSRRRFSTSTGRGCGPGVGVPGAGVPGGGVPGAGVPGGGVPGAGVPGGGVPGAGVPGGGVPGAGVPGGGVPGAGVPGGGVPGAGVPGGGVPGAGVPGVGVPGAGVPGGGVPGAGVPGGGVPGAGVPGGGVPGAGVPGGGVPGAGVPGGGVPGAGVPGGGVPGAGVPGGGVPGAGVPGVGVPGAGVPGGGVPGAGVPGGGVPGAGVPGGGVPGAGVPGGGVPGAGVPGGGVPGAGVPGGGVPGAGVPGGGVPGAGVPGVGVPGAGVPGGGVPGAGVPGGGVPGAGVPGGGVPGAGVPGGGVPGAGVPGGGVPGAGVPGGGVPGAGVPGGGVPGAGVPGVGVPGAGVPGGGVPGAGVPGGGVPGAGVPGGGVPGAGVPGGGVPGAGVPGGGVPGAGVPGGGVPGAGVPGGGVPGAGVPGVGVPGAGVPGGGVPGAGVPGGGVPGAGVPGGGVPGAGVPGGGVPGAGVPGGGVPGAGVPGGGVPGAGVPGGGVPGAGVPGVGVPGAGVPGGGVPGAGVPGGGVPGAGVPGGGVPGAGVPGGGVPGAGVPGGGVPGAGVPGGGVPGAGVPGGGVPGAGVPGVGVPGAGVPGGGVPGAGVPGGGVPGAGVPGGGVPGAGVPGGGVPGAGVPGGGVPGAGVPGGGVPGAGVPGGGVPGAGVPGVGVPGAGVPGGGVPGAGVPGGGVPGAGVPGGGVPGAGVPGGGVPGAGVPGGGVPGAGVPGGGVPGAGVPGGGVPGAGVPGVGVPGAGVPGGGVPGAGVPGGGVPGAGVPGGGVPGAGVPGGGVPGAGVPGGGVPGAGVPGGGVPGAGVPGGGVPGAGVPGWPGSGGCSTRIRRQL
modifications: synthetic SynB1-ELP-NOX sequence
internalization in HUVECs [1]: detectable in a punctate cytoplasmic distribution in both cell lines
ROS production of hypoxic explants [2]: inhibited this ROS production
internalization in BeWo cells [3]: detectable in a punctate cytoplasmic distribution in both cell lines
